One test addresses T1, CXCR1-U2OS (Homo sapiens, UniProt P25024).
T1 construct: host or cells: U2OS-derived CXCR1 cell line, purchased
T1 sequence (P25024 1-350): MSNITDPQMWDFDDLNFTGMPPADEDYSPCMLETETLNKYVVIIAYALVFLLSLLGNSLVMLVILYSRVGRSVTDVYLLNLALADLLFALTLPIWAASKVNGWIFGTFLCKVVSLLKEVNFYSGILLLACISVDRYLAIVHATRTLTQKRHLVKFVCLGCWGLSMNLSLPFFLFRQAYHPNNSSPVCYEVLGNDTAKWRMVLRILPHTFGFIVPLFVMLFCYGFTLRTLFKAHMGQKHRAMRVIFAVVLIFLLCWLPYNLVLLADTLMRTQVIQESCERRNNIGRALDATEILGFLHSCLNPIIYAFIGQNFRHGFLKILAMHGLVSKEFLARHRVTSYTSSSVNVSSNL
The experiment in a line: Flow cytometry binding to CXCR1 expressing cells. The protocol:
(§1) Briefly, a cell line expressing functionally validated CXCR1 derived from U2OS cells was obtained from DiscoveRx and cultured per manufacturer's instructions (Cat#93-0226C3, DiscoveRx Corporation, Freemont, Calif.). The parental cell line U20S was obtained from ATCC and cultured under the same conditions as the CXCR1 cells. Cell culture supernatants from Example 2 above were then tested for binding to cells by flow cytometry. The adherent U20S or CXCR1-U20S cells were dissociated with Accutase (Innovative Cell Technologies, Inc., San Diego, Calif.), neutralized with an equal volume of media containing 10% serum, centrifuged at 1000 g, and resuspended in PBS with 2% BSA. Next, cells were dispensed into microtiter plates to achieve between 30,000 to 300,000 cells per well, centrifuged again, and resuspended in cell culture supernatant containing expressed IgG, or a dilution of IgG-containing cell culture supernatant. A fluorescent-conjugated anti-Human Fc antibody was used to detect binding of the expressedBLV1H12-IL8 fusion proteins to cells.
In general terms: In flow cytometry, cells or beads pass a laser one at a time.

The test system of a further test is Parental U2OS. Kind of test: Flow cytometry binding to parental cells. The note with it: cell culture supernatant containing expressed IgG, anti-Human Fc detection. As to the method:
as §1

B1: BLV1H12-IL8: human IL-8 (amino acids 26-99) replacing the knob domain of BLV1H12; heavy chain variable region SEQ ID NO: 38 (antibody)
VH: QVQLRESGPSLVKPSQTLSLTCTASGFSLSDKAVGWVRQAPGKALEWLGSIDTGGNTGYNPGLKSRLSITKDNSKSQVSLSVSSVTTEDSATYYCTSVHQETKKYQSPRSAKELRCQCIKTYSKPFHPKFIKELRVIESGPHCANTEIIVKLSDGRELCLDPKENWVQRVVEKFLKRAENSGSGSYTYNYEWHVDVWGQGLLVTV
light: QAVLNQPSSVSGSLGQRVSITCSGSSSNVGNGYVSWYQLIPGSAPRTLIYGDTSRASGVPDRFSGSRSGNTATLTISSLQAEDEADYFCASAEDSSSNAVFGSGTTLTVLGQPKSPPSVTLFPPSTEELNGNKATLVCLISDFYPGSVTVVWKADGSTITRNVETTRASKQSNSKYAASSYLSLTSSDWKSKGSYSCEVTHEGSTVTKTVKPSECS
Turning to B1, the “ratio of median fluorescence (IgG binding) of CXCR1-U2OS cells versus U2OS parental cells” value with CXCR1-U2OS is recorded as “has specificity for CXCR1”. The “Median Arbitrary Fluorescence Units (AFU)” value with CXCR1-U2OS (CXCR1-U2OS cells, cell culture supernatant containing expressed IgG, anti-Human Fc detection) stood at 707 AFU; with Parental U2OS, 76 AFU.

The record behind these values is patent US20140050720A1, “ULTRALONG COMPLEMENTARITY DETERMINING REGIONS AND USES THEREOF” (THE SCRIPPS RESEARCH INSTITUTE, priority 2012, published 2014).
